This passage reports Kd results from article PMC13156308, “Proximal proteomics analysis reveals DNA polymerase δ subunit 3 is a new MCM2 binding partner and promotes parental histones inheritance in mammalian cells” (Cell Death and Differentiation, 2025).

The target in the assay is T1, GST-tagged MCM2 (human, UniProt P49736 1-904).
T1 construct: MCM2, amplified from cDNA of human MCF-7 cells, in pGEX-C5X; called MCM2-His in the three-protein pull-down; also called GST-MCM2; MCM2-His; source: E. coli BL21, purified (Ni-NTA); not shown: GST, N-terminal, kept; His tag, C-terminal, kept
In words: BLI; MCM2 immobilised on Anti-GST biosensors, BLItz, 1x PBS and 0.02% Tween; analyte 0-50.0 nM. Particulars: both partners purified. Background: Biolayer interferometry detects binding as a change in optical thickness at a sensor tip.

T1 sequence (P49736 whole entry): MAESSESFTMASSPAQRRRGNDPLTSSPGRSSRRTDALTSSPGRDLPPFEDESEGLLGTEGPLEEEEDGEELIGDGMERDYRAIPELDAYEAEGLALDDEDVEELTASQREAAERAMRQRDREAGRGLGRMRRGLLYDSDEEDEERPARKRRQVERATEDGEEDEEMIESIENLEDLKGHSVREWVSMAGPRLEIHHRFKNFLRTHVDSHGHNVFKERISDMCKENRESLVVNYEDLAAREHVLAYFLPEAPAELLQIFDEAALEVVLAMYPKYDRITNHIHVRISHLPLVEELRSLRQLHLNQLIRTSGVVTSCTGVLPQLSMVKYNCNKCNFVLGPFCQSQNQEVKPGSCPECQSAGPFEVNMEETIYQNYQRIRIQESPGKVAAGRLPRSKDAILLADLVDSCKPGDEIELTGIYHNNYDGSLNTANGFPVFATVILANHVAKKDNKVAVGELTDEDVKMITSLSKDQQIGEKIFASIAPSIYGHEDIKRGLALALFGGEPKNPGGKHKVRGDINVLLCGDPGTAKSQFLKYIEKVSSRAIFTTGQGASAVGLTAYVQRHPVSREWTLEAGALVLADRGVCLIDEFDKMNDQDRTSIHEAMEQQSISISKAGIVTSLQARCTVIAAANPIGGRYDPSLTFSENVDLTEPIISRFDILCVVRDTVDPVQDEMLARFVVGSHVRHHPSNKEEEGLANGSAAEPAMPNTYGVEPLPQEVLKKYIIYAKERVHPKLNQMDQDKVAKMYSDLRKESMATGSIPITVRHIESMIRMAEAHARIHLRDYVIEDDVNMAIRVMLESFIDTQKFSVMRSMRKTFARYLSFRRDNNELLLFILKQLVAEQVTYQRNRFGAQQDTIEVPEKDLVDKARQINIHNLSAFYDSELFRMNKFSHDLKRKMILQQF

B1: full-length strep-tagged POLD3 (natural protein, human, UniProt Q15054 1-466, looked up)
chain: MADQLYLENIDEFVTDQNKIVTYKWLSYTLGVHVNQAKQMLYDYVERKRKENSGAQLHVTYLVSGSLIQNGHSCHKVAVVREDKLEAVKSKLAVTASIHVYSIQKAMLKDSGPLFNTDYDILKSNLQNCSKFSAIQCAAAVPRAPAESSSSSKKFEQSHLHMSSETQANNELTTNGHGPPASKQVSQQPKGIMGMFASKAAAKTQETNKETKTEAKEVTNASAAGNKAPGKGNMMSNFFGKAAMNKFKVNLDSEQAVKEEKIVEQPTVSVTEPKLATPAGLKKSSKKAEPVKVLQKEKKRGKRVALSDDETKETENMRKKRRRIKLPESDSSEDEVFPDSPGAYEAESPSPPPPPSPPLEPVPKTEPEPPSVKSSSGENKRKRKRVLKSKTYLDGEGCIVTEKVYESESCTDSEEELNMKTSSVHRPPAMTVKKEPREERKGPKKGTAALGKANRQVSITGFFQRK
notes: full-length human POLD3 gene, synthesised and codon-optimised, in pET28b; also called purified POLD3; Strep II-tagged POLD3; source: E. coli BL21, purified (Ni-NTA); not shown: twin-strep, C-terminal, kept
Consider B1, for which the dissociation constant Kd stood at 10.2 nM.

One may read the Kd as the constant that tells how readily two partners part at equilibrium. Lower therefore signals a tighter complex.
